Data taken from article PMC4739419, “Mutations in the nucleotide binding and hydrolysis domains of Helicobacter pylori MutS2 lead to altered biochemical activities and inactivation of its in vivo function” (BMC Microbiology, 2016).

What was measured:
H. pylori strain 26695 = assay: Recombination assay (incorporation of streptomycin resistant chromosomal DNA); type: cell-based, Helicobacter pylori; conditions: for fold higher recombination / transformation frequency than the wild-type strain: HpMutS2-E413A over-expressed in the wild-type strain
Protocol: The construction of hpmutS2-disrupted strain, complements, and calculations of recombination frequencies were performed as described in [7]. Briefly, H. pylori strain 26695 was used to disrupt hpmutS2 gene by allelic replacement using a chloramphenicol resistance cassette and to generate integrations. The wild-type and mutants of HpMutS2 preceded by ureA promoter and containing an apramycin resistance cassette were integrated into a non-essential ureA locus. The correct constructions were verified by PCR and the expression of proteins was monitored by Western blots. Recombination frequencies were determined by rate of incorporation of streptomycin resistant isogenic total chromosomal DNA (200 ng) per cfu. P values were calculated using the Mann–Whitney U test. At least two independent clones of each construction were used to determine the recombination frequencies. All DNA constructs were introduced using natural transformation. H. pylori was grown on BAB plates at 37 °C under microaerophillic conditions.

[1] = molecular target: the molecule itself; assay: SEC; Superose-6 HR 10/30, buffer B (50 mM Tris pH 8.0, 100 mM NaCl), 0.3 ml/min, approximately 150 ug protein injected; mass from a plot of Ve/Vo versus log of molecular mass of standards

Molecule | fold higher recombination / transformation frequency than the wild-type strain (H. pylori strain 26695) | binding result [1] | Relative value (recombinant frequency relative to Wt) (H. pylori strain 26695; Wt = 1) | Recombinant frequency (H. pylori strain 26695; streptomycin resistance colonies per recipient cfu, average (±standard deviation))
HpMutS2-E413A (enzyme, also called Walker-B mutant) MSDAPKRSLNPTLMMNNNNTPPKPLEESLDLKEFIALFKTFFAKERDTIALENDLKQTFTYLNEVDAIGLPTPKSVKESDLIIIKLTKLGTLHLDEIFEIVKRLHYIVVLQNAFKTFTHLKFHERLNAIVLPPFFNDLIALFDDEGKIKQGANATLDALNESLNRLKKESVKIIHHYARSKELAPYLVDTQSHLKHGYECLLLKSGFSGAIKGVVLERSANGYFYLLPESAQKIAQKIAQIGNEIDCCIVEMCQTLSHSLQKHLLFLKFLFKEFDFLDSLQARLNFAKAYNLEFVMPSFTQKKMILENFSHPILKEPKPLNLKFEKSMLAVTGVNAGGKTMLLKSLLSAAFLSKHLIPMKINAHHSIIPYFKEIHAIINDPQNSANNISTFAGRMKQFSALLSKENMLLGVDAIELGTDADEASSLYKTLLEKLLKQNNQIIITTHHKRLSVLMAENKEVELLAALYDEEKERPTYTFLKGVIGKSYAFETALRYGVPHFLIEKAKTFYGEDKEKLNVLIENSSALERELKQKNEHLENALKEQEYLKNAWLLEMEKQKEIFHNKKLELEKSYQQALNILKSEVASKDTSSMHKEIHKASEILSKHKTNQEIPQIITNFQANEKARYKNESVLIVQILDKGYYWIETELGMRLKAHGSLLKKIQKPPKNKFKPPKTTIPKPKEASLRLDLRGQRSEEALDLLDAFLNDALLGGFEEVLICHGKGSGILEKFVKEFLKNHPKVVSFSDAPINLGGSGVKIVKL | ~ 5 fold | binds |  | 
HpMutS2: Helicobacter pylori MutS2 (1-762), C-terminally His6-tagged wild-type protein, nuclease and ABC ATPase (protein, left off: His6, C-terminal, state not stated, Helicobacter pylori MutS2 (1-762), C-terminally His6-tagged wild-type protein, nuclease and ABC ATPase) MSDAPKRSLNPTLMMNNNNTPPKPLEESLDLKEFIALFKTFFAKERDTIALENDLKQTFTYLNEVDAIGLPTPKSVKESDLIIIKLTKLGTLHLDEIFEIVKRLHYIVVLQNAFKTFTHLKFHERLNAIVLPPFFNDLIALFDDEGKIKQGANATLDALNESLNRLKKESVKIIHHYARSKELAPYLVDTQSHLKHGYECLLLKSGFSGAIKGVVLERSANGYFYLLPESAQKIAQKIAQIGNEIDCCIVEMCQTLSHSLQKHLLFLKFLFKEFDFLDSLQARLNFAKAYNLEFVMPSFTQKKMILENFSHPILKEPKPLNLKFEKSMLAVTGVNAGGKTMLLKSLLSAAFLSKHLIPMKINAHHSIIPYFKEIHAIINDPQNSANNISTFAGRMKQFSALLSKENMLLGVDEIELGTDADEASSLYKTLLEKLLKQNNQIIITTHHKRLSVLMAENKEVELLAALYDEEKERPTYTFLKGVIGKSYAFETALRYGVPHFLIEKAKTFYGEDKEKLNVLIENSSALERELKQKNEHLENALKEQEYLKNAWLLEMEKQKEIFHNKKLELEKSYQQALNILKSEVASKDTSSMHKEIHKASEILSKHKTNQEIPQIITNFQANEKARYKNESVLIVQILDKGYYWIETELGMRLKAHGSLLKKIQKPPKNKFKPPKTTIPKPKEASLRLDLRGQRSEEALDLLDAFLNDALLGGFEEVLICHGKGSGILEKFVKEFLKNHPKVVSFSDAPINLGGSGVKIVKL | ~ 8 fold |  | 7.9 | 39.2 (±29.2) x10^−4
